Read-outs that look alike come from different tables or passages of the source.
T1: human DKK1 (Homo sapiens, UniProt O94907)
T1 construct: purchased Sino Biological 10170-H08H
T1 sequence (O94907 32-266): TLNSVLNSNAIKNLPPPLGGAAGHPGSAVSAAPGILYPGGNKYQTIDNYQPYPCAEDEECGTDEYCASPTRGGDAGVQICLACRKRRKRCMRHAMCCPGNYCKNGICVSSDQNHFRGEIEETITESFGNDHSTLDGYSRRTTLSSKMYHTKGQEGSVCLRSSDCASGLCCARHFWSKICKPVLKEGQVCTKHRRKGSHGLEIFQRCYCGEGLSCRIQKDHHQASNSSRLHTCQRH

T2: human DKK1 antigen (Sino Biological, 10170-H08H) (human, UniProt O94907 32-266)
T2 construct: also called huDKK1; hDKK1
T2 sequence (looked up): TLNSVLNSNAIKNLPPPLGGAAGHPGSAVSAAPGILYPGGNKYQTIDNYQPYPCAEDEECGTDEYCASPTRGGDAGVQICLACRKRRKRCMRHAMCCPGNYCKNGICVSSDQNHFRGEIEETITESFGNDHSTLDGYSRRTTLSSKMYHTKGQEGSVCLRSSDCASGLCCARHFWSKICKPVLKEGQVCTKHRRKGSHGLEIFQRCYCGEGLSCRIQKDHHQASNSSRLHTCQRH

T3: human DKK1 antigen (Sino Biological, 10170-H08H) (human, UniProt O94907 32-266)
T3 chain: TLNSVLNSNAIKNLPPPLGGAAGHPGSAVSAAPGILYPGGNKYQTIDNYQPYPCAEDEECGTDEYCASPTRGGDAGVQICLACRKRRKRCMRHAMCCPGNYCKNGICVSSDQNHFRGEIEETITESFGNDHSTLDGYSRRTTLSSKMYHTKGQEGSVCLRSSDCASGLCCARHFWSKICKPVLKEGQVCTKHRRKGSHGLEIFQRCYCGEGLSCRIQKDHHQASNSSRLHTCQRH


Tests used:
[1] = target: T1, human DKK1; experiment: Binding of antibodies to human DKK1 by ELISA; conditions: chimeric antibodies, compared among each other
Method: (§1) Detection of the binding activity of the chimeric antibodies for human DKK1 by ELISA: After the plate was coated with 2.0 μg/mL human DKK1 antigen (Sino Biological, 10170-H08H) for 90 min and then blocked with 2% BSA for 90 min, the gradiently diluted anti-DKK1 chimeric antibodies and positive control antibody DKN-01 (starting at 1 μg/mL, diluted in a 2.5-fold gradient to 1.64 ng/ml, with a total of 8 concentrations) were added, and the mixture was incubated for 60 min. After the plate was washed, the 5000-fold diluted HRP-conjugated goat anti-human IgG (Fc specific) (Sigma, A0170) secondary antibody was added for incubation, and 0.1 mg/mL TMB (Sigma, T2885) was added for color development. Finally, the reaction was stopped with a 2 M hydrochloric acid solution. The plate was read at 450 nm/620 nm using a Thermo Scientific microplate reader, and the EC50 values of the chimeric antibodies (FIG. 3) were obtained by fitting using a four-parameter logistic regression (4PL) model.
Detection of the binding of the humanized antibodies to DKK1 by ELISA: The plate was coated with 2.0 μg/mL human DKK1 antigen (Sino Biological, 10170-H08H) for 90 min and then blocked with 2% BSA for 90 min. After the plate was washed, the gradiently diluted anti-DKK1 humanized antibodies (starting at 1 μg/mL, diluted in a 10-fold gradient to 1 ng/ml, with a total of 4 concentrations) were each added, and the mixture was incubated for 60 min. After the plate was further washed, the 5000-fold diluted HRP-conjugated goat anti-human IgG (Fc specific) (Sigma, A0170) secondary antibody was added for incubation for 30 min, and 0.1 mg/mL TMB (Sigma, T2885) was added at 100 μL per well for color development for 10 min. Finally, a 2 M hydrochloric acid solution was added at 50 μL per well to stop the reaction. The plate was read at 450 nm/620 nm using a Thermo Scientific microplate reader. The EC50 values of the humanized antibodies were obtained by fitting using a four-parameter logistic regression (4PL) model.

[2] = target: T1, human DKK1; experiment: Luciferase reporter gene assay in 293 TOP cells with Wnt3a and human DKK1 (recovery of Wnt signaling); type: cell-based; conditions: screening at protein and cellular level
Method: The cellular biological activity of the DKK1 antibodies was tested using target cells 293 TOP overexpressing LRP5/6 and comprising the luciferase reporter system and recombinant Wnt3a (R&D systems, cat #5036-WN), as well as human DKK1 (Sino Biological, cat #10170-H08H) protein. The target cells 293 TOP were placed into a 96-well flat-bottomed white plate (corning, cat #3917) at 50,000 cells per well for incubation overnight. The supernatant was then discarded, and the gradiently diluted antibodies to be tested were each added for pre-incubation at 37° C. for 0.5 h. After the pre-incubation was completed, the diluted Wnt3a (R&D systems, cat #5036-WN) and human DKK1 protein, at working concentrations of 0.05 μg/mL and 0.1 μg/mL, respectively, were added into the mixture containing the cells and antibody for co-incubation at 37° C. for 6-8 h. Finally, the luciferase substrate One-Lite (Vazyme, cat #DD1203-03-AB) was added and the chemiluminescence values of the hybridoma antibodies were measured.
(§2) The cellular biological activity of the hDKK1 chimeric antibodies was tested using target cells 293 TOP overexpressing LRP5/6 and comprising the luciferase reporter system and recombinant Wnt3a (R&D systems, cat #5036-WN), as well as human DKK1 (Sino Biological, cat #10170-H08H) protein.
The target cells 293 TOP were placed into a 96-well flat-bottomed white plate (corning, cat #3917) at 50,000 cells per well for incubation overnight. […] Finally, the luciferase substrate One-Lite (Vazyme, cat #DD1203-03-AB) was added and the chemiluminescence values of the chimeric antibodies were measured (FIGS. 5A-5C).
as §2, with “DKK1” for “hDKK1 chimeric”, “protein. […] Finally, the luciferase substrate One-Lite (Vazyme, cat #DD1203-03-AB) was added and the chemiluminescence values of the humanized antibodies were measured. […]” for “protein.”

[3] = target: T2, human DKK1 antigen (Sino Biological, …); experiment: ELISA, coated human DKK1
Method: as §1

[4] = target: T3, human DKK1 antigen (Sino Biological, …); experiment: ELISA blocking of DKK1-LRP6
[5] = target: T3, human DKK1 antigen (Sino Biological, …); experiment: ELISA binding; given as IC50
[6] = target: T3, human DKK1 antigen (Sino Biological, …); experiment: ELISA binding
[7] = target: T3, human DKK1 antigen (Sino Biological, …); experiment: ELISA binding
[8] = target: T3, human DKK1 antigen (Sino Biological, …); experiment: ELISA blocking of DKK1-LRP6

| relative binding activity for human DKK1 (ELISA) [1] | in vitro activity in the screening of the chimeric antibodies of Example 4 [2] | binding result [3] | IC50 [4] [µg/mL] | EC50 [6] [µg/mL] | Molecule | other results |
| --- | --- | --- | --- | --- | --- | --- |
| superior activity | best in vitro activity | – | – | – | chi-15: chimeric antibody 3VH+3VL (SEQ ID NO: 41/42) (antibody, V domains shown) VH: MGWNCFILFLVATATGVHSQVQLQQPGAELVKPGASVKMSCKASGYTFTSYNMLWVKQTPGQGLEWIGVIFPGNGDTSYNPKFKGKAALTADKSSSTAYMQLSSLTSEDSAVYYCARDGYPSMDYWGQGTSVTVSS VL: MLSLAPLLSLLLLCVSDSRAETIVTQSPASLSVATGEKVTIRCITSTDIDDDMNWYQQKPGEPPKLLISEGNSLRPGVPSRFSSSGYGTDFVFTIENTLSEDVADYYCLQFNNMPLTFGAGTKLELK | – |
| – | – | – | 0.92 | 0.816 | chi-21 (antibody, V domains shown) VH: QVQLQQPGAELVKPGASVKMSCKASGYTFTSYNMLWVKQTPGQGLEWIGVIFPGNGDTSYNPKFKGKAALTADKSSSTAYMQLSSLTSEDSAVYYCARDGYPSMDYWGQGTSVTVSS VL: QIVLTQSPVIMSASPGEKVTMTCSASSSVSYMYWYQQKPGSSPRLLIYDTSNLASGVPVRFSGSGSGTSYSLTISRMEAEDAATYYCQQWSSYPPALTFGAGTKLELK | – |

Second part, the molecule before the results:

| Molecule | relative binding activity for human DKK1 (ELISA) [1] | in vitro activity in the screening of the chimeric antibodies of Example 4 [2] | binding result [3] | IC50 [4] [µg/mL] | EC50 [6] [µg/mL] | other results |
| --- | --- | --- | --- | --- | --- | --- |
| chi-1: chimeric antibody 1VH+1VL (SEQ ID NO: 37/38) (antibody, V domains shown) VH: MGWSWIFLFLLSGTAGVLSEVQLQQSGPELVKPGASVRISCKTSGYTFTEYTMHWVKQSHGKSLEWIGVIDPSNGDTSYNQKFKGRATLTVDKSSSTAYMDLRSLTSEDSALYYCSSTTGPWFACWGQGTLVTVSA VL: MSSAQFLGLLLLCFQGTRCDIQMTQTTSSLSASLGDRVTINCRASQDISNYLNWYQQKPDGTVKLLIYYKSRLHSGVPTRFSGSGSGTDFSLTISNLVQEDIATYFCQQVHTLPPTFGGGTKLEIK | superior activity | best in vitro activity | – | – | – | – |
| chi-8: chimeric antibody 2VH+2VL (SEQ ID NO: 39/40) (antibody, V domains shown) VH: MGWSWIFLFLLSGTAGVLSEVQLQQSGPELVKPGASVKIFCKTSGYTFTENTMHWVKQTHGKSLEWIGGINPHKGGTSYNQKFKGKATLTVDKSSSTACMELRSLTSEDSTVYYCARDWLGAMDYWGQGTSVTVSP VL: MFSLALLLSLLLLCVSDSRAETTVTQSPASLSMAIGEKVTIRCITSTDIDDDMNWYQQKPGEPPKLLISEGNTLRPGVPSRFSSSGYGTDFVFTIENMLSEDVADYYCLQSDNLPYTFGGGTKLEIK | superior activity | best in vitro activity | – | – | – | – |
| chimeric antibody chi-8 (antibody, human IgG4 S228P, kappa, V domains shown, hIgG4 heavy constant region and human kappa constant region; also called No. 2 chimeric antibody molecule) VH: EVQLQQSGPELVKPGASVKIFCKTSGYTFTENTMHWVKQTHGKSLEWIGGINPHKGGTSYNQKFKGKATLTVDKSSSTACMELRSLTSEDSTVYYCARDWLGAMDYWGQGTSVTVSP VL: ETTVTQSPASLSMAIGEKVTIRCITSTDIDDDMNWYQQKPGEPPKLLISEGNTLRPGVPSRFSSSGYGTDFVFTIENMLSEDVADYYCLQSDNLPYTFGGGTKLEIKR | – | – | binds | 0.309 | – | EC50 [5]: 0.0434 µg/mL |
| chimeric antibody chi-15 (antibody, human IgG4 S228P, kappa, V domains shown, hIgG4 heavy constant region and human kappa constant region; also called No. 3 chimeric antibody molecule) VH: QVQLQQPGAELVKPGASVKMSCKASGYTFTSYNMLWVKQTPGQGLEWIGVIFPGNGDTSYNPKFKGKAALTADKSSSTAYMQLSSLTSEDSAVYYCARDGYPSMDYWGQGTSVTVSS VL: ETIVTQSPASLSVATGEKVTIRCITSTDIDDDMNWYQQKPGEPPKLLISEGNSLRPGVPSRFSSSGYGTDFVFTIENTLSEDVADYYCLQFNNMPLTFGAGTKLELKR | – | – | binds | 0.0992 | 0.0238 | EC50 [7]: 0.0244 µg/mL; IC50 [8]: 0.258 µg/mL |

Reference: patent US20250122271A1, “ANTI-DKK1 ANTIBODY, PHARMACEUTICAL COMPOSITION THEREOF, AND USE THEREOF” (SHANGHAI JUNSHI BIOSCIENCES CO., LTD., priority 2022, published 2025)
